Marks after values point to notes of the source that are not given here.
Legend:
[1] = system: Meth A tumor-bearing mice; assay: Maximum tolerated dose of the drug complexes of Examples 5, 6 and 7 (Example 9); format: in vivo, BALB/c mice; conditions: single administration on the 13th day
Protocol: Meth A cells were transplanted into BALB/c mice to prepare Meth A tumor-bearing mice. On the 13th day, the drug complexes obtained in Examples 5, 6 and 7 were singly administered. After the administration, measurement of the body weight and observation of toxic death were made with time, and the maximum body-weight reduction rate and mortality were calculated, which are shown in Table 5. The dose is expressed in terms of the weight of anhydrous free base of DX-8951.
On the basis of the dose in which body weight reduction and death were observed, MTD of each complex were judged as follows.

[2] = Release of the drug compound from the drug complex in buffer (Example 8); format: physicochemical; conditions: for released amount of the drug (DX-8951), percentage of the drug in the drug complex used: 37° C., 50 μg/ml, after 20 hours
Protocol: (50 μg/ml). […] The released amount of the drug is expressed in percentage of the released amount of the drug to the amount of the drug in the drug complex used.

[3] = system: Meth A cells; assay: Antineoplastic activity of the complexes of Examples 1, 5 and 6 (Example 10); format: in vivo, BALB/c mice; conditions: singly administered on the 7th day; for IR, diminution rate of the tumor: 21th day; for Average tumor weight: tumor weighed on the 21th day
Protocol: Meth A cells were transplanted into BALB/c mice to prepare Meth A tumor-bearing mice. On the 7th day after the transplantation, the drug complexes shown in Examples 1, 5 and 6 were singly administered, respectively. The weight of the tumor was measured on the 21th day to evaluate the inhibitory activity on the tumor and the toxicity. In the table, * represents significance in Dunnet's test (*** p<0.001, ** P<0.01, * P<0.05), the dose is expressed in terms of the weight of anhydrous free base of DX-8951, and IR represents the diminution rate of the tumor.

Substance	BWLmax, maximum body-weight reduction rate ([1]; 5 mg/kg) [%]	day when the maximum body-weight reduction was observed ([1]; 5 mg/kg) [days]	BWLmax, maximum body-weight reduction rate ([1]; 10 mg/kg) [%]	day when the maximum body-weight reduction was observed ([1]; 10 mg/kg) [days]	BWLmax, maximum body-weight reduction rate ([1]; 20 mg/kg) [%]	day when the maximum body-weight reduction was observed ([1]; 20 mg/kg) [days]	BWLmax, maximum body-weight reduction rate ([1]; 30 mg/kg) [%]	day when the maximum body-weight reduction was observed ([1]; 30 mg/kg) [days]	MTD ([1]; dose as DX-8951 anhydrous free base) [mg/kg]	released amount of the drug (DX-8951), percentage of the drug in the drug complex used ([2]; Buffer (pH 4.5)) [%]	released amount of the drug (DX-8951), percentage of the drug in the drug complex used ([2]; Buffer (pH 6.5)) [%]	release of the drug in words ([2]; buffer)	IR, diminution rate of the tumor ([3]; 0.15625 mg/kg) [%]	Average tumor weight ([3]; 0.15625 mg/kg)	IR, diminution rate of the tumor ([3]; 0.3125 mg/kg) [%]	Average tumor weight ([3]; 0.3125 mg/kg)	IR, diminution rate of the tumor ([3]; 0.625 mg/kg) [%]	Average tumor weight ([3]; 0.625 mg/kg)	IR, diminution rate of the tumor ([3]; 1.25 mg/kg) [%]	Average tumor weight ([3]; 1.25 mg/kg)
carboxymethyldextran polyalcohol-Gly-Gly-NH-p-C6H4—CH2—O—CO-DX-8951 [Example 7]	25.4	18	13.7	16	14.2	16	14.6	16	<2.5	0.15	0.16	hardly released	–	–	–	–	–	–	–	–
Carboxymethyldextran polyalcohol-Gly-Gly-Gly-Phe-NH-p-C6H4—CH2—O—CO-DX-8951 [Example 6]	–	–	–	–	–	–	–	–	–	–	–	–	37	1.645 ± 0.191* g	46	1.419 ± 0.163** g	90	0.272 ± 0.066*** g	99	0.016 ± 0.008*** g

Source: patent US6835807B1, “Drug complex and drug delivery system” (Daiichi Pharmaceuticals Co., Ltd., priority 1998, dated 2004)
